From patent US11319374B2, “Inhibitors of prototypic galectin dimerization and uses thereof” (INSTITUT NATIONAL DE LA RECHERCHE SCIENTIFIQUE, priority 2015, dated 2022)

Tests used:
[1] = system: Jurkat T cells; test: Apoptosis/toxicity of peptide alone in Jurkat T cells, Annexin V/PI; type: cell-based
Procedure: FIG. 8A: Flow cytometry histogram showing propidium iodide (PI) (FL3) labeling of Jurkat T cells without or with 200 μM of hGal-7(129-135). FIG. 8B: Histogram showing the average percentage of Annexin-V (AV) positive Jurkat T cells in the presence of increasing concentrations of […]. FIG. 8C: Flow cytometry histogram showing PI (FL3) labeling of Jurkat T cells without or with 200 μM of PACAP28-38 FIG. 8D: Histogram showing the average percentage of AV-positive Jurkat T cells in the presence of increasing concentrations of PACAP28-38. The percentage of cell death was obtained as described above. Error bars represent standard deviation. Significance was calculated with respect to AF samples. Results are representative of three independent experiments.
Apoptosis assays with Annexin V/PI staining. Apoptosis was measured by flow cytometry using FITC-labeled Annexin V (Biolegend®, San Diego, Calif., USA) and propidium iodide. Briefly, the corresponding dilutions of recombinant hGal-7 and hGal-7(129-135) peptides were pre-incubated for 1 h at 4° C. in serum-free RPMI 1640 medium. 2.5×10^5 Jurkat cells were then harvested in the same medium and incubated with their corresponding dilutions at 37° C. for 4 h. Cells were washed once in PBS and once in binding buffer (0.01 M HEPES, 0.14 M NaCl, 2.5 mM CaCl2, pH 7.4). Cells were then incubated for 15 min with Annexin V in the dark at room temperature. A total of 400 μL of binding buffer containing 0.25 μg/mL propidium iodide was added to the cells before analysis by flow cytometry.

[2] = target: T1, hGal-7/Bcl-2 heterodimer (Homo sapiens, UniProt P47929); test: hGal-7/Bcl-2 heterodimer disruption, low-SDS Western blotting with anti-Gal-7 antibody; type: biochemical; conditions: hGal-7 and Bcl-2 each 0.5 μM, especially at the highest dose of 500 μM, FIG. 12C
T1 construct: host or cells: E. coli BL21 (DE3) (hGal-7)
T1 sequence (P47929 2-136 limits assumed, one chain of several): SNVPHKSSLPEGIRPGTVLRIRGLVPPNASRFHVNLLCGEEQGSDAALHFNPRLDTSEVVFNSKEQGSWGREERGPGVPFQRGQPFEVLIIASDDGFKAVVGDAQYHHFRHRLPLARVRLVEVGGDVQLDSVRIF
Procedure: FIGS. 12A to 12C show the dose-dependent disruption of the hGal-7/Bcl-2 heterodimer in the presence of the hGal-7(129-135) peptide. FIGS. 12A and 12B: detection of hGal-7/Bcl-2 heterodimers in the presence of the indicated amounts of recombinant Bcl-2 using an anti-gal-7 antibody (FIG. 12A) or an anti-Bcl-2 antibody (FIG. 12B). FIG. 12C: the recombinant hGal-7 and Bcl-2 (each at 0.5 μM) were incubated with increasing concentrations of hGal-7(129-135) in 20 mM potassium phosphate buffer (pH 7.1). The effect of hGal-7(129-135) on the homodimerization and heterodimerization (with Bcl-2) of hGal-7 was assessed by Western blotting in low-SDS conditions with an anti-Gal-7 antibody.
Production of recombinant hGal-7 and hGal-1. Human Gal-7 cDNA was cloned into pET-22b(+) using Ndel and HindIII restriction enzymes. Human pET-Gal-1 vector was generously donated by Dr. S. Sato (McGill University, QC, Canada). The proteins were produced in E. coli BL21 (DE3) cells at 37° C. Isopropyl p-D-1-thiogalactopyranoside (IPTG) (1 mM) was added to the bacterial culture at OD600nm=0.6-0.7 and then incubated for 4 h at 37° C. to allow protein production. […] Purified fractions were analyzed by SDS-PAGE. […]

Substance: H-Leu-Asp-Ser-Val-Arg-Ile-Phe-NH2 (H-LDSVRIF-NH2; listed as Homo sapiens) [hGal-7(129-135), peptide corresponding to residues 129-135 of hGal-7]
- toxicity in Jurkat T cells ([1]; PI labeling at 200 μM, Annexin V at increasing concentrations, FIGS. 8A to 8D): do not induce toxicity in Jurkat T cells
- induction of apoptosis by peptide alone ([1]; peptide alone, FIG. 8): did not induce apoptosis in Jurkat T cells
- amount of hGal-7/Bcl-2 heterodimers [2]: decreased
